Reference: US20260242478A1 (published 2026)

B1: Phage-1585 (peptide)
peptide: TCAAGASWNWPACE
notes: Read from the row with '-' = Peptide-92 residue: TCAAGASWNWPACE; also called Peptide-92 library clone

Biological target: Anti-CD28 Fab (SEQ ID NOs: 696, 697)
Assay: phage binding ELISA; Fab-coated wells pre-incubated with saturating CD28 antigen as competitor, anti-M13 HRP detection
Target sequence in this assay (VH, as listed by the source, chain 1 of 2): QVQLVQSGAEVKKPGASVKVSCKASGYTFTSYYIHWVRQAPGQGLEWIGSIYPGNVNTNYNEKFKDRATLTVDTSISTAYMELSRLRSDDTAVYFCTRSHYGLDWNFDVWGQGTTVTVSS
Target sequence in this assay (VL, as listed by the source, chain 2 of 2): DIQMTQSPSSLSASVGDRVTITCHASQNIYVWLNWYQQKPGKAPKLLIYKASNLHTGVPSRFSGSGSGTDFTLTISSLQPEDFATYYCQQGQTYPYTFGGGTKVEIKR
Method: (§1) Clonal phage were harvested as crude supematants and screened via standard ELISAs. […] Prior to the addition of clonal phage, wells were incubated with blocking buffer and CD28 antigen or blocking buffer alone. Without washing or aspirating, clonal phage supematants were then added to the wells and incubated for a short time. Wells were then washed followed by detection of bound phage using a horse radish conjugated anti-M13 antibody.

| Binder | Anti-CD28 Fab signal in the presence of CD28 |
| --- | --- |
| PCSAGVTYAWLYCV (also called Peptide-92 library clone) [Phage-1587] | 0.06 |
| MCAAGAAWAWPLCL (also called Peptide-92 library clone) [Phage-1588] | 0.07 |
| RCSFRFITLAEACV (also called Peptide-92 library clone) [Phage-1577] | 0.08 |
| TCAAGASYPWPLCV (also called Peptide-92 library clone) [Phage-1589] | 0.06 |
| SCSAGASLQLSQCF (also called Peptide-92 library clone) [Phage-1576] | 0.05 |
| LCSAGFLFQWSTCL (also called Peptide-92 library clone) [Phage-1580] | 0.06 |
| LCAAGFMYEWPLCF (also called Peptide-92 library clone) [Phage-1590] | 0.06 |
| TCAAGAQFAWPLCL (also called Peptide-92 library clone) [Phage-1579] | 0.07 |
| PCAAGAMWPWPVCL (also called Peptide-92 library clone) [Phage-1583] | 0.06 |
| TCSAGAHYPWPICL (also called Peptide-92 library clone) [Phage-1578] | 0.08 |
| RCAAGFHYSWPNCF (also called Peptide-92 library clone) [Phage-1581] | 0.06 |
| LCAAGAHYSWPACF (also called Peptide-92 library clone) [Phage-1586] | 0.09 |
| GCAAGASYPWPACL (also called Peptide-92 library clone) [Phage-1582] | 0.06 |
| B1 | 0.07 |
| TCSAGATYSWPACL (also called Peptide-92 library clone) [Phage-1584] | 0.06 |

Biological target: T1, Anti-CD28 Fab (SEQ ID NOs: 696, 697)
T1 construct: In the phage ELISA the Fab was biotinylated and captured on neutravidin coated plates
Assay: phage binding ELISA; Fab-coated wells pre-incubated with CD28 antigen as competitor, phage detected with anti-M13-HRP
T1 sequence (VH, as listed by the source, chain 1 of 2): as the sequence (VH, as listed by the source, chain 1 of 2) above
T1 sequence (VL, as listed by the source, chain 2 of 2): as the sequence (VL, as listed by the source, chain 2 of 2) above
Method: Clonal phage were harvested as crude supematants and screened via standard ELISAs. […] Prior to the addition of clonal phage, wells were incubated with blocking buffer and CD28 antigen or blocking buffer alone. Without washing or aspirating, clonal phage supematants were then added to the wells and incubated for a short time. Wells were then washed followed by detection of bound phage using a horse radish conjugated anti-M13 antibody. Clonal phage of interest were then sent for sequence analysis.

| Binder | Anti-CD28 Fab signal in the presence of CD28 |
| --- | --- |
| TCSAGAMYSWPLCI (Peptide-92 library clone) [Phage-1677] | 0.08 |
| TCAAGATWVWPTCF (Peptide-92 library clone) [Phage-1675] | 0.07 |
| TCSAGAMYNWPECF (Peptide-92 library clone) [Phage-1676] | 0.08 |

Biological target: T1, Anti-CD28 Fab (SEQ ID NOs: 696, 697)
Assay: phage binding ELISA; biotinylated anti-CD28 Fab on neutravidin plate, clonal phage detected with anti-M13-HRP;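 further: crude clonal phage supernatants added briefly to wells preincubated in blocking buffer with or without CD28 antigen, then washed before detection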

| Binder | Anti-CD28 Fab (SEQ ID NOs: 696, 697) signal |
| --- | --- |
| TCSAGAMYSWPLCI (Peptide-92 library clone) [Phage-1677] | 0.91 |
| TCAAGATWVWPTCF (Peptide-92 library clone) [Phage-1675] | 0.92 |
| TCSAGAMYNWPECF (Peptide-92 library clone) [Phage-1676] | 0.92 |

Biological target: Anti-CD28 Fab (SEQ ID NOs: 696, 697)
Assay: phage binding ELISA; biotinylated anti-CD28 Fab on neutravidin plate, clonal phage supernatant, anti-M13 HRP detection;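 further: wells pretreated with blocking buffer, either plus or minus CD28 antigen, then given crude phage supernatant briefly without washing in between, then washed before anti-M13 HRP readout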
Target sequence in this assay (VH, as listed by the source, chain 1 of 2): as the sequence (VH, as listed by the source, chain 1 of 2) above
Target sequence in this assay (VL, as listed by the source, chain 2 of 2): as the sequence (VL, as listed by the source, chain 2 of 2) above
Method: as §1

| Binder | Anti-CD28 Fab (SEQ ID NOs: 696, 697) signal |
| --- | --- |
| PCSAGVTYAWLYCV (also called Peptide-92 library clone) [Phage-1587] | 1.41 |
| MCAAGAAWAWPLCL (also called Peptide-92 library clone) [Phage-1588] | 1.4 |
| RCSFRFITLAEACV (also called Peptide-92 library clone) [Phage-1577] | 1.41 |
| TCAAGASYPWPLCV (also called Peptide-92 library clone) [Phage-1589] | 1.4 |
| SCSAGASLQLSQCF (also called Peptide-92 library clone) [Phage-1576] | 1.41 |
| LCSAGFLFQWSTCL (also called Peptide-92 library clone) [Phage-1580] | 1.41 |
| LCAAGFMYEWPLCF (also called Peptide-92 library clone) [Phage-1590] | 1.4 |
| TCAAGAQFAWPLCL (also called Peptide-92 library clone) [Phage-1579] | 1.41 |
| PCAAGAMWPWPVCL (also called Peptide-92 library clone) [Phage-1583] | 1.41 |
| TCSAGAHYPWPICL (also called Peptide-92 library clone) [Phage-1578] | 1.41 |
| RCAAGFHYSWPNCF (also called Peptide-92 library clone) [Phage-1581] | 1.41 |
| LCAAGAHYSWPACF (also called Peptide-92 library clone) [Phage-1586] | 1.41 |
| GCAAGASYPWPACL (also called Peptide-92 library clone) [Phage-1582] | 1.41 |
| B1 | 1.41 |
| TCSAGATYSWPACL (also called Peptide-92 library clone) [Phage-1584] | 1.41 |
